The record followed here is publication PMC11946911.

Assay [1] addresses EcZorA (ZorA of the Escherichia coli NCTC 9026 type I Zorya system, EcZorI) (Escherichia coli NCTC 9026). Description: cryo-EM structure.
Assay [2] deals with EcZorB (ZorB of the Escherichia coli NCTC 9026 type I Zorya system, EcZorI) (Escherichia coli NCTC 9026). Description: cryo-EM structure.

A word on the stoichiometry N: it is a count of units in the complex or per binding partner.

As for “EcZorA (ZorA of the Escherichia coli NCTC 9026 type I Zorya system, EcZorI) (natural protein)”, in assay [1], the stoichiometry N was determined as 5.

The substance “EcZorB (ZorB of the Escherichia coli NCTC 9026 type I Zorya system, EcZorI) (natural protein)” yielded a stoichiometry N in assay [2] of 2.
